Results from article PMC2115667 (The Journal of Cell Biology, 1988).

Biological target: the molecule itself
Assay: sedimentation velocity centrifugation on glycerol gradients

B1: cytotactin (intact, unreduced hexabrachion) (natural protein)
chain: ETGLNVTLPEDNQPVVFNHVYNIKLPVGSLCSVDLDTASGDADLKAEIEPVKNYEEHTVNEGNQIVFTHRINIPRRACGCAAAPDIKDLLSRLEELEGLVSSLREQCASGAGCCPNSQTAEGRLDTAPYCSGHGNYSTEICGCVCEPGWKGPNCSEPACPRNCLNRGLCVRGKCICEEGFTGEDCSQAACPSDCNDQGKCVDGVCVCFEGYTGPDCGEELCPHGCGIHGRCVGGRCVCHEGFTGEDCNEPLCPNNCHNRGRCVDNECVCDEGYTGEDCGELICPNDCFDRGRCINGTCFCEEGYTGEDCGELTCPNNCNGNGRCENGLCVCHEGFVGDDCSQKRCPKDCNNRGHCVDGRCVCHEGYLGEDCGELRCPNDCHNRGRCINGQCVCDEGFIGEDCGELRCPNDCHNRGRCVNGQCECHEGFIGEDCGELRCPNDCNSHGRCVNGQCVCDEGYTGEDCGELRCPNDCHNRGRCVEGRCVCDNGFMGEDCGELSCPNDCHQHGRCVDGRCVCHEGFTGEDCRERSCPNDCNNVGRCVEGRCVCEEGYMGIDCSDVSPPTELTVTNVTDKTVNLEWKHENLVNEYLVTYVPTSSGGLDLQFTVPGNQTSATIHELEPGVEYFIRVFAILKNKKSIPVSARVATYLPAPEGLKFKSVRETSVQVEWDPLSISFDGWELVFRNMQKKDDNGDITSSLKRPETSYMQPGLAPGQQYNVSLHIVKNNTRGPGLSRVITTKLDAPSQIEAKDVTDTTALITWSKPLAEIEGIELTYGPKDVPGDRTTIDLSEDENQYSIGNLRPHTEYEVTLISRRGDMESDPAKEVFVTDLDAPRNLKRVSQTDNSITLEWKNSHANIDNYRIKFAPISGGDHTELTVPKGNQATTRATLTGLRPGTEYGIGVTAVRQDRESAPATINAGTDLDNPKDLEVSDPTETTLSLRWRRPVAKFDRYRLTYVSPSGKKNEMEIPVDSTSFILRGLDAGTEYTISLVAEKGRHKSKPTTIKGSTEEEPELGNLSVSETGWDGFQLTWTAADGAYENFVIQVQQSDNPEETWNITVPGGQHSVNVTGLKANTPYNVTLYGVIRGYRTKPLYVETTTGAHPEVGELTVSDITPESFNLSWTTTNGDFDAFTIEIIDSNRLLEPMEFNISGNSRTAHISGLSPSTDFIVYLYGISHGFRTQAISAAATTEAEPEVDNLLVSDATPDGFRLSWTADDGVFDSFVLKIRDTKRKSDPLELIVPGHERTHDITGLKEGTEYEIELYGVSSGRRSQPINSVATTVVGSPKGISFSDITENSATVSWTPPRSRVDSYRVSYVPITGGTPNVVTVDGSKTRTKLVKLVPGVDYNVNIISVKGFEESEPISGILKTALDSPSGLVVMNITDSEALATWQPAIAAVDNYIVSYSSEDEPEVTQMVSGNTVEYDLNGLRPATEYTLRVHAVKDAQKSETLSTQFTTGLDAPKDLSATEVQSETAVITWRPPRAPVTDYLLTYESIDGRVKEVILDPETTSYTLTELSPSTQYTVKLQALSRSMRSKMIQTVFTTTGLLYPYPKDCSQALLNGEVTSGLYTIYLNGDRTQPLQVFCDMAEDGGGWIVFLRRQNGKEDFYRNWKNYVAGFGDPKDEFWIGLENLHKISSQGQYELRVDLRDRGETAYAVYDKFSVGDAKTRYRLRVDGYSGTAGDSMTYHNGRSFSTFDKDNDSAITNCALSYKGAFWYKNCHRVNLMGRYGDNNHSQGVNWFHWKGHEYSIQFAEMKLRPSSFRNLEGRRKRA
modifications: interchain disulfide bonds; HNK-1 carbohydrate epitope; radioiodinated (chloramine T, 125I) in the ultracentrifugation
stoichiometry N: ~6
